{"source": "paper PMC5045792", "key": {"[1]": {"biological_target": "ToxR-TM-MBP chimera with the transmembrane domain of the FtsI homolog annotated for S. pneumoniae (S. pneumoniae)", "assay": "TOXGREEN"}, "[2]": {"biological_target": "ToxR-TM-MBP chimera with the transmembrane domain of the FtsI homolog annotated for S. pyogenes (S. pyogenes)"}}}
{"substance": "ToxR-TM-MBP chimera with the transmembrane domain of the FtsI homolog annotated for S. pneumoniae (domain or fragment)", "values": [{"measurement": "GFP expression, percent of GpA", "setting": "[1]", "value": "> 100 % of GpA"}]}
{"substance": "ToxR-TM-MBP chimera with the transmembrane domain of the FtsI homolog annotated for S. pyogenes (domain or fragment)", "values": [{"measurement": "GFP expression, percent of GpA", "setting": "[2]", "value": "> 100 % of GpA"}]}
